Our source for the EC50 (pg/mL) of T cell-redirected killing of KILR Raji cells, +HSA and EC50 (pg/mL) of T cell-redirected killing of KILR Raji cells, -HSA values is patent US20230037815A1.

For this assay, the target named is human CD19 on KILR Raji cells (UniProt P15391). Kind of assay: cell-based or functional assay.
Sequence of human CD19 on KILR Raji cells (P15391 20-556 limits assumed): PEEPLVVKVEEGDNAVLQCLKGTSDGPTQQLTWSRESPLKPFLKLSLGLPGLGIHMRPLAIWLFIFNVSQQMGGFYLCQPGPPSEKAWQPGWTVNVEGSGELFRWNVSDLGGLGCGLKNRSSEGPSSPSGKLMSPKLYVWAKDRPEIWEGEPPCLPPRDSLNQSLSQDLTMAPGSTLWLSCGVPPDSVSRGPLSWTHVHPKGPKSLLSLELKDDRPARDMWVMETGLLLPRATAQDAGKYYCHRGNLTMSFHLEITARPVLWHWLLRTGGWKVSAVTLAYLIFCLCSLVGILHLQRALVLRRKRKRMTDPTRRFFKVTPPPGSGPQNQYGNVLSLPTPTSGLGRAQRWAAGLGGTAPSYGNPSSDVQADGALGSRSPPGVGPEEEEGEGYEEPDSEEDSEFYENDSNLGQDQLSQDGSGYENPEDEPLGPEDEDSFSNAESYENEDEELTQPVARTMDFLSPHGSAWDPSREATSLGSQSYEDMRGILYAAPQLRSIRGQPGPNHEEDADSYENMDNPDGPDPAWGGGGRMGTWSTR

Consider blinatumomab (bispecific antibody), for which the EC50 (pg/mL) of T cell-redirected killing of KILR Raji cells, +HSA was 10800 pg/mL and the EC50 (pg/mL) of T cell-redirected killing of KILR Raji cells, -HSA was found to be 2850 pg/mL.
